Experimental data reported in patent publication US20250327097A1, “ORGANISMS PRODUCING LESS CROTONIC ACID” (Global Bioenergies, priority 2021, published 2025).

B1: I283T-P284D-N287P-S322T-N388M-E421T-C430N-L432F-L434W-S436N-A463G-Y469D (protein)
chain: MFLKSLREQINLLKRQGDLRIINRPVDSYLEAAAIIRRSTETKAPVPLMTNIKGYPGCSIVGGLAALSSNPEYPLSRVAMSLGLSTTASAQSIVQYLIDGLKKTPYLPVEIDSNSAPCKQNILRGEDASLAHFPIPQVHQHDGNRYVNTWGVFIVESPDGQWCNWSIQRVQYLNDRQMIALVFPSQHISDIWEEWVKIGKPMPYALVQGCEPIVPYIAGLPLLERNVNEAEYIGALYGKGIEVVKCETHDLRVPASSEVVIEGYFAITREGVEGPFGEFAGYTDNEPSLQPILSITAISWQDDPIWPVVAEGKPVDEYHTCTGIGDAAAIQNVLLTANLPVSFVWVPLYSACHLMIVSINRHWRQTHPDLTSEQLTKKVGDVIHQTRMSIKLPKIVVLDDDVDPADTESLLWALATRIHPTRKRYFYESNIFPWLNCYSEEERHNRKGKRVIIDALLPENHGGISSFDDAYPDDIKQRVLMHWETDFSHD
B2: I283T-P284D-N287P-S322T-N388M-E421V-C430N-L432F-L434W-S436N-A463G-Y469D (protein)
chain: MFLKSLREQINLLKRQGDLRIINRPVDSYLEAAAIIRRSTETKAPVPLMTNIKGYPGCSIVGGLAALSSNPEYPLSRVAMSLGLSTTASAQSIVQYLIDGLKKTPYLPVEIDSNSAPCKQNILRGEDASLAHFPIPQVHQHDGNRYVNTWGVFIVESPDGQWCNWSIQRVQYLNDRQMIALVFPSQHISDIWEEWVKIGKPMPYALVQGCEPIVPYIAGLPLLERNVNEAEYIGALYGKGIEVVKCETHDLRVPASSEVVIEGYFAITREGVEGPFGEFAGYTDNEPSLQPILSITAISWQDDPIWPVVAEGKPVDEYHTCTGIGDAAAIQNVLLTANLPVSFVWVPLYSACHLMIVSINRHWRQTHPDLTSEQLTKKVGDVIHQTRMSIKLPKIVVLDDDVDPADTESLLWALATRIHPVRKRYFYESNIFPWLNCYSEEERHNRKGKRVIIDALLPENHGGISSFDDAYPDDIKQRVLMHWETDFSHD
B3: I283T-P284D-N287P-S322T-N388M-C430N-L432F-L434W-S436N-E459P-A463G-Y469D (protein)
chain: MFLKSLREQINLLKRQGDLRIINRPVDSYLEAAAIIRRSTETKAPVPLMTNIKGYPGCSIVGGLAALSSNPEYPLSRVAMSLGLSTTASAQSIVQYLIDGLKKTPYLPVEIDSNSAPCKQNILRGEDASLAHFPIPQVHQHDGNRYVNTWGVFIVESPDGQWCNWSIQRVQYLNDRQMIALVFPSQHISDIWEEWVKIGKPMPYALVQGCEPIVPYIAGLPLLERNVNEAEYIGALYGKGIEVVKCETHDLRVPASSEVVIEGYFAITREGVEGPFGEFAGYTDNEPSLQPILSITAISWQDDPIWPVVAEGKPVDEYHTCTGIGDAAAIQNVLLTANLPVSFVWVPLYSACHLMIVSINRHWRQTHPDLTSEQLTKKVGDVIHQTRMSIKLPKIVVLDDDVDPADTESLLWALATRIHPERKRYFYESNIFPWLNCYSEEERHNRKGKRVIIDALLPPNHGGISSFDDAYPDDIKQRVLMHWETDFSHD
B4: I283T-P284D-N287P-S322T-N388M-C430N-L432F-L434W-S436N-A463G-Y469T (protein)
chain: MFLKSLREQINLLKRQGDLRIINRPVDSYLEAAAIIRRSTETKAPVPLMTNIKGYPGCSIVGGLAALSSNPEYPLSRVAMSLGLSTTASAQSIVQYLIDGLKKTPYLPVEIDSNSAPCKQNILRGEDASLAHFPIPQVHQHDGNRYVNTWGVFIVESPDGQWCNWSIQRVQYLNDRQMIALVFPSQHISDIWEEWVKIGKPMPYALVQGCEPIVPYIAGLPLLERNVNEAEYIGALYGKGIEVVKCETHDLRVPASSEVVIEGYFAITREGVEGPFGEFAGYTDNEPSLQPILSITAISWQDDPIWPVVAEGKPVDEYHTCTGIGDAAAIQNVLLTANLPVSFVWVPLYSACHLMIVSINRHWRQTHPDLTSEQLTKKVGDVIHQTRMSIKLPKIVVLDDDVDPADTESLLWALATRIHPERKRYFYESNIFPWLNCYSEEERHNRKGKRVIIDALLPENHGGISSFDTAYPDDIKQRVLMHWETDFSHD
B5: I283T-P284D-E286C-N287P-S322T-N388M-C430N-L432F-L434W-S436N-A463G-Y469D (protein)
chain: MFLKSLREQINLLKRQGDLRIINRPVDSYLEAAAIIRRSTETKAPVPLMTNIKGYPGCSIVGGLAALSSNPEYPLSRVAMSLGLSTTASAQSIVQYLIDGLKKTPYLPVEIDSNSAPCKQNILRGEDASLAHFPIPQVHQHDGNRYVNTWGVFIVESPDGQWCNWSIQRVQYLNDRQMIALVFPSQHISDIWEEWVKIGKPMPYALVQGCEPIVPYIAGLPLLERNVNEAEYIGALYGKGIEVVKCETHDLRVPASSEVVIEGYFAITREGVEGPFGEFAGYTDNCPSLQPILSITAISWQDDPIWPVVAEGKPVDEYHTCTGIGDAAAIQNVLLTANLPVSFVWVPLYSACHLMIVSINRHWRQTHPDLTSEQLTKKVGDVIHQTRMSIKLPKIVVLDDDVDPADTESLLWALATRIHPERKRYFYESNIFPWLNCYSEEERHNRKGKRVIIDALLPENHGGISSFDDAYPDDIKQRVLMHWETDFSHD
B6: I283T-P284D-N287P-S322T-N388M-C430N-L432F-L434W-S436N-A463F-Y469D (protein)
chain: MFLKSLREQINLLKRQGDLRIINRPVDSYLEAAAIIRRSTETKAPVPLMTNIKGYPGCSIVGGLAALSSNPEYPLSRVAMSLGLSTTASAQSIVQYLIDGLKKTPYLPVEIDSNSAPCKQNILRGEDASLAHFPIPQVHQHDGNRYVNTWGVFIVESPDGQWCNWSIQRVQYLNDRQMIALVFPSQHISDIWEEWVKIGKPMPYALVQGCEPIVPYIAGLPLLERNVNEAEYIGALYGKGIEVVKCETHDLRVPASSEVVIEGYFAITREGVEGPFGEFAGYTDNEPSLQPILSITAISWQDDPIWPVVAEGKPVDEYHTCTGIGDAAAIQNVLLTANLPVSFVWVPLYSACHLMIVSINRHWRQTHPDLTSEQLTKKVGDVIHQTRMSIKLPKIVVLDDDVDPADTESLLWALATRIHPERKRYFYESNIFPWLNCYSEEERHNRKGKRVIIDALLPENHGFISSFDDAYPDDIKQRVLMHWETDFSHD
B7: S185T-N388M-C430P-L432F-L434W-S436N (protein)
chain: MFLKSLREQINLLKRQGDLRIINRPVDSYLEAAAIIRRSTETKAPVPLMTNIKGYPGCSIVGGLAALSSNPEYPLSRVAMSLGLSTTASAQSIVQYLIDGLKKTPYLPVEIDSNSAPCKQNILRGEDASLAHFPIPQVHQHDGNRYVNTWGVFIVESPDGQWCNWSIQRVQYLNDRQMIALVFPTQHISDIWEEWVKIGKPMPYALVQGCEPIVPYIAGLPLLERNVNEAEYIGALYGKGIEVVKCETHDLRVPASSEVVIEGYFAITREGVEGPFGEFAGYIPNENSLQPILSITAISWQDDPIWPVVAEGKPVDEYHTCSGIGDAAAIQNVLLTANLPVSFVWVPLYSACHLMIVSINRHWRQTHPDLTSEQLTKKVGDVIHQTRMSIKLPKIVVLDDDVDPADTESLLWALATRIHPERKRYFYESPIFPWLNCYSEEERHNRKGKRVIIDALLPENHGAISSFDYAYPDDIKQRVLMHWETDFSHD
B8: I283T-P284D-N287P-S322T-N388M-C430N-L432F-L434W-S436N-G462P-A463G-Y469D (protein)
chain: MFLKSLREQINLLKRQGDLRIINRPVDSYLEAAAIIRRSTETKAPVPLMTNIKGYPGCSIVGGLAALSSNPEYPLSRVAMSLGLSTTASAQSIVQYLIDGLKKTPYLPVEIDSNSAPCKQNILRGEDASLAHFPIPQVHQHDGNRYVNTWGVFIVESPDGQWCNWSIQRVQYLNDRQMIALVFPSQHISDIWEEWVKIGKPMPYALVQGCEPIVPYIAGLPLLERNVNEAEYIGALYGKGIEVVKCETHDLRVPASSEVVIEGYFAITREGVEGPFGEFAGYTDNEPSLQPILSITAISWQDDPIWPVVAEGKPVDEYHTCTGIGDAAAIQNVLLTANLPVSFVWVPLYSACHLMIVSINRHWRQTHPDLTSEQLTKKVGDVIHQTRMSIKLPKIVVLDDDVDPADTESLLWALATRIHPERKRYFYESNIFPWLNCYSEEERHNRKGKRVIIDALLPENHPGISSFDDAYPDDIKQRVLMHWETDFSHD
B9: I283T-P284D-N287P-S322T-N388M-i421aG-C430N-L432F-L434W-S436N-A463G-Y469D (protein)
chain: MFLKSLREQINLLKRQGDLRIINRPVDSYLEAAAIIRRSTETKAPVPLMTNIKGYPGCSIVGGLAALSSNPEYPLSRVAMSLGLSTTASAQSIVQYLIDGLKKTPYLPVEIDSNSAPCKQNILRGEDASLAHFPIPQVHQHDGNRYVNTWGVFIVESPDGQWCNWSIQRVQYLNDRQMIALVFPSQHISDIWEEWVKIGKPMPYALVQGCEPIVPYIAGLPLLERNVNEAEYIGALYGKGIEVVKCETHDLRVPASSEVVIEGYFAITREGVEGPFGEFAGYTDNEPSLQPILSITAISWQDDPIWPVVAEGKPVDEYHTCTGIGDAAAIQNVLLTANLPVSFVWVPLYSACHLMIVSINRHWRQTHPDLTSEQLTKKVGDVIHQTRMSIKLPKIVVLDDDVDPADTESLLWALATRIHPERKRYFYESNIFPWLNCYSEEERHNRKGKRVIIDALLPENHGGISSFDDAYPDDIKQRVLMHWETDFSHD
B10: I283F-P284E-N287Q-S322T-N388M-K394R-C430N-L432F-L434W-S436N-dG462 (protein)
chain: MFLKSLREQINLLKRQGDLRIINRPVDSYLEAAAIIRRSTETKAPVPLMTNIKGYPGCSIVGGLAALSSNPEYPLSRVAMSLGLSTTASAQSIVQYLIDGLKKTPYLPVEIDSNSAPCKQNILRGEDASLAHFPIPQVHQHDGNRYVNTWGVFIVESPDGQWCNWSIQRVQYLNDRQMIALVFPSQHISDIWEEWVKIGKPMPYALVQGCEPIVPYIAGLPLLERNVNEAEYIGALYGKGIEVVKCETHDLRVPASSEVVIEGYFAITREGVEGPFGEFAGYFENEQSLQPILSITAISWQDDPIWPVVAEGKPVDEYHTCTGIGDAAAIQNVLLTANLPVSFVWVPLYSACHLMIVSINRHWRQTHPDLTSEQLTKKVGDVIHQTRMSIKLPRIVVLDDDVDPADTESLLWALATRIHPERKRYFYESNIFPWLNCYSEEERHNRKGKRVIIDALLPENHGAISSFDYAYPDDIKQRVLMHWETDFSHD

The molecules below were run on 3-methylcrotonic acid.
Type: biochemical, Yersinia frederiksenii
Set-up: key: “+” representing a low increase in activity; “++++” representing a high increase in activity

Molecule	Activity relative to WT
B1	++++
B2	++++
B3	++++
B4	++++
B5	++++
B6	++++
B7	+
B8	++++
B9	++++
B10	++++
